# In a protein production outcome set (Wang et al. 2014):
# Test: label from the status in PepcDB records
# 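Also: failed if final PepcDB status was selected cloned or expressed and not failed if soluble or beyond.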
row,Sequence,protein production
1,MEASMERFDNAPETALAWHRQGLGAALATVVETWGSAPRRVGAQLVIGGDGRIEGSVSGGCVEGAVIVEALEALEEGQARLLEFGVSDEDAFAVGLACGGTIRVLVEPVGQVLSEVMLAELVAARASRQALAYVVDTARGTRALVRDAYPERMRMDRSGFDEDGRTFVAVHNPPLRLIVVGAVHIAQALVPMARIAGYDPVVIDPREAFASDARFPGETILHDWPDEAVAKLGLDARTALVLLTHDPKLDDPALEAALAADVFYIGALGSTRTHAKRVARMQEAGFTEAQIGRIHGPVGLDIGAAGPAEIAVAILAQMTAVLRGRA,not failed
2,MEATKERVGLLDTILPPALADAGLEDCALPPESIQEAFRKAANAVKSRAASIFDHEEEDGCLADPIPETADKIIVGGDNERDTGPCLAGKGIEKLAESKQAGDLVVAGEGEEGKSCVDGLKDLDVEGIERSSEKKDQSDEDEEEEMKPILVEGFV,failed
3,MEAVIFDMDGVLMDTEPLYFEAYRRVAESYGKPYTEDLHRRIMGVPEREGLPILMEALEIKDSLENFKKRVHEEKKRVFSELLKENPGVREALEFVKSKRIKLALATSTPQREALERLRRLDLEKYFDVMVFGDQVKNGKPDPEIYLLVLERLNVVPEKVVVFEDSKSGVEAAKSAGIERIYGVVHSLNDGKALLEAGAVALVKPEEILNVLKEVL,not failed
4,MECRPLCIDDLELVCRHREAMFREAGRDALTLAAMQDPFRDWLLPRLADGSYFGWVMEEGGAPLAGIGLMVIEWPPHPSHPLQDKRGYILNLYVDPSHRERGIGQALMNRAEAEFAERGIAFAVLHATEMGQPLYARMGWSPTTEMSKPIAG,not failed
5,MEDERIKLLFKEKALEILMTIYYESLGGNDVYIQYIASKVNSPHSYVWLIIKKFEEAKMVECELEGRTKIIRLTDKGQKIAQQIKSIIDIMENDT,not failed
6,MEDGVTPPLLITEKDTTMIRVKEEVKKQLWLSAPLIGVSLLQYSLQVISVMFVGHLGSLPLSAASIATSFASVTGFTFLLGTASALETLCGQAYGAKLYGKLGIQMQRAMFVLLILSVPLSIIWANTEQILVLVHQDKSIASVAGSYAKYMIPSLFAYGLLQCINRFLQAQNNVFPVFVCSGITTCLHLLLCWLFVLKTGLGYRGAALAISVSYWFNVILLSCYVKFSPSCSHSWTGFSKEAFQELYDFSKIAFPSAVMVCLELWSFELLVLASGLLPNPVLETSVLSICLNTSLTIWQISVGLGGAASIRVSNELGAGNPQVAKLAVYVIVGIAVAEGIVVVTVLLSIRKILGHAFSSDPKIIAYAASMIPIVACGNFLDGLQCVLSGVARGCGWQKIGACVNLGSYYLVGVPLGLLLGFHFHIGGRGLWLGIVTALSVQVLCLSLVTIFTNWDKEAKKATNRVGSSDDKDGDVQ,failed
7,MEDKRNRGRRITDRITEAYYELMKIVAENNHERMFEYYVEDDEAYIFKIVNSSPAQETVYPFFKQNIDTYMSECPADSIECFKKQLDKCLLRPMRTAFQLSFISEDGKSRPVEMYMVSIPDLDKKVCMVVGVMFDIRDEKGLLDSLTGTYNHLAFENKCTSLIRQKGTKLLFVMLDVDDFKIVNDTLGHNVGDRVLSQTGQVLKEAVGANGIVGRLGGDEFAAIVFGLEDSDAVDEFCVKLSGRLKNIIFDMEYSASIGMTTGDDRELTFKDLYYEADQAMYYSKRQGKNRISFFNSIRKNDITVPHNSCAPSITDVSCRMSDREIFSYDEMPDYILAVDEESRRIVFVNKAIRNSSVMTASQIDEFISKPFEDGFIDLFLRKKEQGNRVSVFQERIIPTI,failed
8,MEDLSDVFDIYAICACCKVAPTSEGTKNEPFSPRTFRGLGNKGTLPWKCNSVDMKYFRSVTTYVDESKYEKLKWKRERYLRMEASQGGGDNTSGGDNNADKLQNVVVMGRSNWESIPKQYKPLPNRINVVLSKTLTKEDVKEKVFIIDSIDDLLLLLKKLKYYKCFIIGGAQVYRECLSRNLIKQIYFTRINGAYPCDVFFPEFDESQFRVTSVSEVYNSKGTTLDFLVYSK,not failed
9,MEEDVPEAEKLMCPKEVVEKNKDKQEEEEDEKGAKGGILNNLISNFMDCTTTTVEGKSSENIQKSLCEDEDEKEQESPSVGILEKIISHLPEDVAPTTDEAAILIHSAID,failed
10,MEEGKMDENEWGYHGEGNKSLVVAHAQRCVVLRFLKFPPNRKKTSEEIFQHLQNIVDFGKNVMKEFLGENYVHYGEVVQLPLEFVKQLCLKIQSERPESRCDKDLDTLSGYAMCLPNLTRLQTYRFAEHRPILCVEIKPKCGFIPFSSDVTHEMKHKVCRYCMHQHLKVATGKWKQISKYCPLDLYSGNKQRMHFALKSLLQEAQNNLKIFKNGELIYGCKDARSPVADWSELAHHLKPFFFPSNGLASGPHCTRAVIRELVHVITRVLLSGSDKGRAGTLSPGLGPQGPRVCEASPFSRSLRCQGKNTPERSGLPKGCLLYKTLQVQMLDLLDIEGLYPLYNRVERYLEEFPEERKTLQIDGPYDEAFYQKLLDLSTEDDGTVAFALTKVQQYRVAMTAKDCSIMIALSPCLQDASSDQRPVVPSSRSRFAFSVSVLDLDLKPYESIPHQYKLDGKIVNYYSKTVRAKDNAVMSTRFKESEDCTLVLHKV,failed
11,MEEKANTGQVIIVLTEHLTFGTLLIPYMAEKSDDGTYQLIEQAFHASPEAISRMNEAEQQAIDIASHYTEKYLMGIYSREKTVSRFLRKLSEDPERVKNNIRPFIEKKMQEMLTLIRHHNLPLYQKQVGSKLLYAHHAYHVHPHDVEIRFTFLADETNFRYQLQCYYDGQPLSLSEQKPVIVLTSSPSALLLGMELYFFPHIESVRILPFTKKKKISVPASQIEKYIDNIVIPIARYHEITTQGLNIIEETYACEAVLSLEDTIYDEQMLRLSFRYGDQSFTPDTVTEMKKIIYRNDFGEIFFFRRDSDAEEEKLRMLTDSGLQRVSDVHFKLSPDAPEKTITEWISTYREMLQQSFLLTGNMGNTPYCLDEIRIEQSCDDEPDWFELHITVVIGNLRIPFSRFRKHILEEKREFLLPDGRMILLPEEWFSKYGNLLELGTQTETGIRLKPTFVGAVQSALEENGPKNLLFKREIRNVPVPQGLNAKLRPYQQKGFSWMVQLNKQGFGGCLADDMGLGKTLQTLTLLQYIYKPLSPDAVTAPMKPVFTETTASDSQPDKECTANNPPVREQIADAEGQFSLFSFSSEDELLPDAREIREKNRPKEDDHRQEHGKNSRKPATLIVVPTSLLHNWRREAKRFTTLAIAEYNSNTAFPKGHPEKFFNHFHLIFTTYGMMRNNIDILRSYTFEYIVLDESQNIKNNDSLTFRSVIQLQGKHRIALTGTPIENSLKDLWAQFRFLQPDLLGEESTFHKQFIIPIRQGNVRMEKRLQQIIAPFILRRSKSEVAPELPPLTEETIYCAMSEKQGESYEQEKNSLRNILLQQPENKDRYHMFSILNGILRLRQLACHPQLIFPDFDGVSGKTEQIIDTFDTLRSEGHKVLIFSSFVRHLEILAEVFRQRGWKYALLTGSTNNRPSEIAHFTEQKDVQAFLISLKAGGVGLNLTQADYVFIIDPWWNPAAESQAIARAHRIGQDKQVIAYRFITQNSIEEKILQLQEDKRRLAETFITDSEALPALSNEQWADLLK,failed
12,MEEKKDFYDTDELRDFMALVEKTNDIKKIALFRILAFTGIRKGELLALEWKDYRKSTLDINKAISHSPVGYEILPPKANSNRLLSLDEKTCKILDELHQTYPESTRIFESENGGMLSPSKPRKWLLEITKEKEIEPIRIHAFRHTHASLLFESGMSLKQVQYRLGHADLKTTMNIYTHITKLEHHHHHH,not failed
13,MEENLISMREDHSFHVRYRMEASCLELALEGERLCKSGDCRAGVSFFEAAVQVGTEDLKTLSAIYSQLGNAYFYLHDYAKALEYHHHDLTLARTIGDQLGEAKASGNLGNTLKVLGNFDEAIVCCQRHLDISRELNDKVGEARALYNLGNVYHAKGKSFGCPGPQDVGEFPEEVRDALQAAVDFYEENLSLVTALGDRAAQGRAFGNLGNTHYLLGNFRDAVIAHEQRLLIAKEFGDKAAERRAYSNLGNAYIFLGEFETASEYYKKTLLLARQLKDRAVEAQSCYSLGNTYTLLQDYEKAIDYHLKHLAIAQELNDRIGEGRACWSLGNAYTALGNHDQAMHFAEKHLEISREVGDKSGELTARLNLSDLQMVLGLSYSTNNSIMSENTEIDSSLNGVRPKLGRRHSMENMELMKLTPEKVQNWNSEILAKQKPLIAKPSAKLLFVNRLKGKKYKTNSSTKVLQDASNSIDHRIPNSQRKISADTIGDEGFFDLLSRFQSNRMDDQRCCLQEKNCHTASTTTSSTPPKMMLKTSSVPVVSPNTDEFLDLLASSQSRRLDDQRASFSNLPGLRLTQNSQSVLSHLMTNDNKEADEDFFDILVKCQGSRLDDQRCAPPPATTKGPTVPDEDFFSLILRSQGKRMDEQRVLLQRDQNRDTDFGLKDFLQNNALLEFKNSGKKSADH,failed
14,MEENMEKNKIKKIALIFNILQVIALAVFEVVLFRLVSYKNKLILDYVPAKYFIILEVVLVAITIIPFLIRKGKKTSIISMVISILMAIVLFATSILGVVYDKDIKNVLNKADQTIDDVVENSKLSTEEYGVYILKSDEAEELKDIENYNLGYNLSYAKDETDSVLKNVLAKANNKLIANEYDDLLKMADELLNTEKTAFIFNQAMLDLIENAGDDTNDGKNNGIYKNFTNKIKCIYVVNVKTAVKEYGGDKNVTKECFNVYISGIDTEGDVTAKSRSDVNIIMSINPVTHQVLLLSTPRDYYVPLSISNGVKDKLTHAGNYGINVSMDTLEMLYDIKLDYFIRLNFTGFVDIIDALGGIDVVSDYSFSTHGYSYSEGLNSNLSGIQALWFARERHAFAEGDKQRGRDQMKVIEAVIKKAQSSALLNNYDEIFANISKSFQTNMPKKDIKALVKYQLNETPNWKVVSTSVTGTGRSDVTYSVPNSRAYVMDPDENSVNEAKKLLQKIQNNKKIKVKTTTE,failed
15,MEESKELNAVIDVIMLAGTILLKSGSEIHRVEDTMIRIAHSQGIVDCNVLAMPAAIFFSIENTNISRMKRVTSSSYNIEKVCDVNQISRQLVGGQIDLETAFKQLTALQAKPLPYTKLQVTLAATFSAPFFSVMFSGNIYDALGAGVATLFGFAFSLYVEKFIRIPFVTAFAGAFVFGIIAQFWARYTGFPSTADLIIAGAVMPFVPGIALTNAVRDIMTNHINSGMSKMFESLLITLALGAGTSVALVLMN,failed
16,MEETILIVSFLLFLILSNVINRIFPKLPLPFIQLVFGILSGLVFHKSQVHIDPELFLAFVIAPLNFREGQESDIGSFIKYRAIILYLILPTVFLTAIVVGYVAGHLLPVSLPLAACFALGAALGPTDAVAFISIAKRFQFPKRAENILKLEGLLNDASGLVSFQFALTALVTGYFSLAKASLKLALAIMGGFLIGLLFAFLMRLCLTVLEKFDAADVTGALLLELTLPFVAYFVADLLGFSAIIAVVVAGVMQANRLKKVTLFDAQVDRVTSVIWETLNFILNGLVFLIFGRELTRIIGPLLTSNAYSNFDLISIVVLVTCTLFLVRFLAVSCFYAWRSFKYHKSFKKYWREIQLLTFSGVKGSVSIATILLLPKHSVIGELGYSLILFTVGAVTLMSFLTGLLVLPKLAPPLQVKDDYLIRLSILTKVLSVLEEDGKSSENQASFYAVIDNYNSRIRHLILEQESSDIKKDLAELQLMMLSIESDGLEAAYRYGNISIKEYRIYQRYLKYLERQVNRSFVSNITYSLTILMRVIRGIVHEFLTFGQGIRNRKKHFKNRKRLLAEVNRQHLTDLYLSNNDLILETLEDMEGYYNATLIDFLQNERIRDAELIKSGLFVERVIARITPDILNETLRGYYLERRTISEFERDGLISSKESQILRDNVNELESYSLRDSQSSIPYQLLDLKK,failed
17,MEETLATPDATRRSLSPSCSATVKSRAAGFERRTKRRLSETNASVREDREEAEEEEDEVKEKIEALQRIIPGGAALGVDALFEETAGYILSLQCQIKTIKVLTSFLQRIDQEDMKFGG,failed
18,MEEVEEFKYEPKSVKEIFIEMKDTVELMVDLAYASLLFGDKEIAEEVLELEERIDLLNYQLMMHSVLAARNVKEAEQVITILQIANAIEDISNAAGDLAKMVLEGVELHPVIKETILEGEEIIGKIQVYPESVIVGKTLGELDLATNTGVWIIAVRRGKRWIFGPNENFKIRAGDVLIGRGTRTSIDHLKEIARGAIRVIGNERA,not failed
19,MEEVKFYVRCYDKIELARMYFPNLSNPVSVAKLRRWMRNCMPLMEELMAGDFHPKMKMFSAREVRLIVRYLGEPDGYVFMHEHADVK,failed
